Results on one substance are retold here after paper PMC7054171.

This assay concerns the target GST tagged Cdc42 Q61L (human) (UniProt P60953). Kind of assay: pull-down.

GST tagged Cdc42 Q61L (human), sequence (P60953 whole entry Q61L): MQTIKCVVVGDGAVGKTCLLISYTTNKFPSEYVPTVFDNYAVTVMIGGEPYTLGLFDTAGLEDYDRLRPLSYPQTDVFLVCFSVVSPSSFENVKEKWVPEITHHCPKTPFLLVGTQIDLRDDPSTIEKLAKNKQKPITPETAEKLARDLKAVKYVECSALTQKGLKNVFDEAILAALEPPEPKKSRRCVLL

With “mVenus-Z-lock-WASP dark (zDK2-GS0-CBD-LOV2, dark state variant) (from UniProt P42768 230-288; O49003 404-546) (designed binder)”, the fold reduction in binding against the lit state variant was above 5 fold.
